Article PMC4434323

Legend:
[1] = biological target: ZC328.2 (ZC328.2) (Caenorhabditis elegans) (UniProt O02050)
[2] = biological target: egrh-1 (C27C12.2) (Caenorhabditis elegans) (UniProt Q18250)
[3] = biological target: odd-2 (C34H3.2) (Caenorhabditis elegans) (UniProt Q9N5X6)
[4] = biological target: T1, F10B5.3 (F10B5.3) (Caenorhabditis elegans) (UniProt Q09534)
T1 sequence: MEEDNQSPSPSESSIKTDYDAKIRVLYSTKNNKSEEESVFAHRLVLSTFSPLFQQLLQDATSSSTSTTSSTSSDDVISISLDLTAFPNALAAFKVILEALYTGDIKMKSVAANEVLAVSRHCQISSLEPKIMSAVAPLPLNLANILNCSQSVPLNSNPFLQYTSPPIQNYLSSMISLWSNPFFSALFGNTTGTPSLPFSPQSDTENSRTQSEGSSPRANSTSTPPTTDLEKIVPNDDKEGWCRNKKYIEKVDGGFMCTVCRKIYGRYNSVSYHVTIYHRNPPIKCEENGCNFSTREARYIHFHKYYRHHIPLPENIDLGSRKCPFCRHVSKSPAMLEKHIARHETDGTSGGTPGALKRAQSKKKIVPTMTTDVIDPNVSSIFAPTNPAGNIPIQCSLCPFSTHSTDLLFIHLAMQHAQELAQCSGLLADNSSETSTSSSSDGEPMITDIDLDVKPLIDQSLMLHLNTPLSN

[5] = biological target: T2, ZK337.2 (ZK337.2) (Caenorhabditis elegans) (UniProt O46016)
T2 sequence: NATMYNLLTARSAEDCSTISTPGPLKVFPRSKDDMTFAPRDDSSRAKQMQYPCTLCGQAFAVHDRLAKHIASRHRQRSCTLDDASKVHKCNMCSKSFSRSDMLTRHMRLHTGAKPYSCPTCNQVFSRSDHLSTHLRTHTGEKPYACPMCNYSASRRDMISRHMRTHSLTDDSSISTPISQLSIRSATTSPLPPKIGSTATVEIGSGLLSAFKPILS

[6] = biological target: T3, F13H6.1 (F13H6.1) (Caenorhabditis elegans) (UniProt H2KZR6)
T3 sequence: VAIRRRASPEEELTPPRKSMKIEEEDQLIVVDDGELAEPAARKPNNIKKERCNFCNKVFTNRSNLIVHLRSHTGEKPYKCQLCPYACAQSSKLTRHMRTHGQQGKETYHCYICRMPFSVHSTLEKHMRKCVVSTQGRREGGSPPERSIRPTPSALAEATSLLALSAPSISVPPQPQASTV

[7] = biological target: T4, che-1 (C55B7.12) (Caenorhabditis elegans) (UniProt Q966L8)
T4 sequence: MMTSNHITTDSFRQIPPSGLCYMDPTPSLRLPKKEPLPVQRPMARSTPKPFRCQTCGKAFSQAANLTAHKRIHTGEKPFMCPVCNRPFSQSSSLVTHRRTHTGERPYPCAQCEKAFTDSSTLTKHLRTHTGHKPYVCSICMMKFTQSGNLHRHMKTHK

[8] = biological target: T5, ztf-19 (T27B1.2) (Caenorhabditis elegans) (UniProt Q22829)
T5 sequence: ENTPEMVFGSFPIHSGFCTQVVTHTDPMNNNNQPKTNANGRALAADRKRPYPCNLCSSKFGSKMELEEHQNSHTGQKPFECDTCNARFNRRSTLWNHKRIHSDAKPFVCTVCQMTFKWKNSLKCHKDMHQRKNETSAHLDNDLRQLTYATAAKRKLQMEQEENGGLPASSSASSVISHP

[9] = biological target: T6, die-1 (C18D1.1) (Caenorhabditis elegans) (UniProt A0A131MCR4)
T6 sequence: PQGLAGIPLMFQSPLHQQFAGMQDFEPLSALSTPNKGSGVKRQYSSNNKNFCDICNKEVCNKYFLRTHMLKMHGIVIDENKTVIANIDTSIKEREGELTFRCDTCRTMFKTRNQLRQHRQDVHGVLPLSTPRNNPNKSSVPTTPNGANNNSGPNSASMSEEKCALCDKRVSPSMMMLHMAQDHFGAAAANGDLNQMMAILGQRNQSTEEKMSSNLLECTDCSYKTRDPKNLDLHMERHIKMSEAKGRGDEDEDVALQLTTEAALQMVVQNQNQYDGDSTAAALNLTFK

Chain of odd-2 (C34H3.2) (Caenorhabditis elegans) (Q9N5X6 74-252): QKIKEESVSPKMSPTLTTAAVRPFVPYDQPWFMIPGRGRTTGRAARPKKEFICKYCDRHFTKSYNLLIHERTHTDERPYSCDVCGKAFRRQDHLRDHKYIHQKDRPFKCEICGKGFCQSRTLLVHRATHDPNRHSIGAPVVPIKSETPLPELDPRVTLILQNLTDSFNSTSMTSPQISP
Chain of ZC328.2 (ZC328.2) (Caenorhabditis elegans) (O02050 entry or part of it): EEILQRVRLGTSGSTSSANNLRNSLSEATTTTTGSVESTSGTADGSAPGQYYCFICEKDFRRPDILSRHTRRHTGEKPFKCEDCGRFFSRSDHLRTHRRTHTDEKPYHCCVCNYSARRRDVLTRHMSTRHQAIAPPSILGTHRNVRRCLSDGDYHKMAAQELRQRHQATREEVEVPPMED
Chain of egrh-1 (C27C12.2) (Caenorhabditis elegans) (Q18250 324-461): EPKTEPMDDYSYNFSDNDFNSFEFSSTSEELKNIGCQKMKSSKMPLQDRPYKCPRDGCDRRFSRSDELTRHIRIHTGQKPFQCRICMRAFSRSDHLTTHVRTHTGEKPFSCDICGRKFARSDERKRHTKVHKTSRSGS

Sequence: CCCCCGCG (double strand) [8-mer CCCCCGCG]
- binding signal (PBM E-score (-0.5 to 0.5)) [1]: 0.488
- binding signal (PBM E-score (-0.5 to 0.5)) [2]: 0.485

Sequence: CCGGTAGC (double strand) [8-mer CCGGTAGC]
- binding signal (PBM E-score (-0.5 to 0.5)) [3]: 0.496

Sequence: CCTCGAAA (double strand) [8-mer CCTCGAAA]
- binding signal (PBM E-score (-0.5 to 0.5)) [4]: 0.474

Sequence: CCTGGAAA (double strand) [8-mer CCTGGAAA]
- binding signal (PBM E-score (-0.5 to 0.5)) [4]: 0.48

Sequence: CGCCCACG (double strand) [8-mer CGCCCACG]
- binding signal (PBM E-score (-0.5 to 0.5)) [5]: 0.492
- binding signal (PBM E-score (-0.5 to 0.5)) [2]: 0.495

Sequence: CGCCCCCA (double strand) [8-mer CGCCCCCA]
- binding signal (PBM E-score (-0.5 to 0.5)) [5]: 0.494
- binding signal (PBM E-score (-0.5 to 0.5)) [2]: 0.493

Sequence: CGCCCCCG (double strand) [8-mer CGCCCCCG]
- binding signal (PBM E-score (-0.5 to 0.5)) [1]: 0.489
- binding signal (PBM E-score (-0.5 to 0.5)) [5]: 0.49
- binding signal (PBM E-score (-0.5 to 0.5)) [2]: 0.496

Sequence: CGCTACCG (double strand) [8-mer CGCTACCG]
- binding signal (PBM E-score (-0.5 to 0.5)) [3]: 0.488

Sequence: CGGTAGCA (double strand) [8-mer CGGTAGCA]
- binding signal (PBM E-score (-0.5 to 0.5)) [3]: 0.496

Sequence: CGGTAGCC (double strand) [8-mer CGGTAGCC]
- binding signal (PBM E-score (-0.5 to 0.5)) [3]: 0.485

Sequence: CTGACCAC (double strand) [8-mer CTGACCAC]
- binding signal (PBM E-score (-0.5 to 0.5)) [6]: 0.495

Sequence: CTGGAAAA (double strand) [8-mer CTGGAAAA]
- binding signal (PBM E-score (-0.5 to 0.5)) [4]: 0.475

Sequence: CTTGACCA (double strand) [8-mer CTTGACCA]
- binding signal (PBM E-score (-0.5 to 0.5)) [6]: 0.496

Sequence: GAAGCCCC (double strand) [8-mer GAAGCCCC]
- binding signal (PBM E-score (-0.5 to 0.5)) [7]: 0.492

Sequence: GCCCACGC (double strand) [8-mer GCCCACGC]
- binding signal (PBM E-score (-0.5 to 0.5)) [1]: 0.485
- binding signal (PBM E-score (-0.5 to 0.5)) [2]: 0.495

Sequence: GCCCCCAC (double strand) [8-mer GCCCCCAC]
- binding signal (PBM E-score (-0.5 to 0.5)) [2]: 0.486

Sequence: GCTACTGA (double strand) [8-mer GCTACTGA]
- binding signal (PBM E-score (-0.5 to 0.5)) [3]: 0.486

Sequence: GGAAGCCA (double strand) [8-mer GGAAGCCA]
- binding signal (PBM E-score (-0.5 to 0.5)) [7]: 0.494

Sequence: GGAAGCCC (double strand) [8-mer GGAAGCCC]
- binding signal (PBM E-score (-0.5 to 0.5)) [7]: 0.495

Sequence: GGCTTCCC (double strand) [8-mer GGCTTCCC]
- binding signal (PBM E-score (-0.5 to 0.5)) [7]: 0.497

Sequence: GGGCTTCA (double strand) [8-mer GGGCTTCA]
- binding signal (PBM E-score (-0.5 to 0.5)) [7]: 0.493

Sequence: GTTCCAGA (double strand) [8-mer GTTCCAGA]
- binding signal (PBM E-score (-0.5 to 0.5)) [4]: 0.473

Sequence: GTTTAAAC (double strand) [8-mer GTTTAAAC]
- binding signal (PBM E-score (-0.5 to 0.5)) [8]: 0.494
- binding signal (PBM E-score (-0.5 to 0.5)) [9]: 0.481

Sequence: GTTTTAAA (double strand) [8-mer GTTTTAAA]
- binding signal (PBM E-score (-0.5 to 0.5)) [9]: 0.478

Sequence: TACACGAA (double strand) [8-mer TACACGAA]
- binding signal (PBM E-score (-0.5 to 0.5)) [4]: 0.476

Sequence: TCCACGAA (double strand) [8-mer TCCACGAA]
- binding signal (PBM E-score (-0.5 to 0.5)) [4]: 0.476

Sequence: TCCTCGAA (double strand) [8-mer TCCTCGAA]
- binding signal (PBM E-score (-0.5 to 0.5)) [4]: 0.481

Sequence: TCCTGGAA (double strand) [8-mer TCCTGGAA]
- binding signal (PBM E-score (-0.5 to 0.5)) [4]: 0.491

Sequence: TCGTGGAA (double strand) [8-mer TCGTGGAA]
- binding signal (PBM E-score (-0.5 to 0.5)) [4]: 0.483

Sequence: TCTGGAAA (double strand) [8-mer TCTGGAAA]
- binding signal (PBM E-score (-0.5 to 0.5)) [4]: 0.487

Sequence: TTCCGGAA (double strand) [8-mer TTCCGGAA]
- binding signal (PBM E-score (-0.5 to 0.5)) [4]: 0.49

Sequence: TTCGAGAA (double strand) [8-mer TTCGAGAA]
- binding signal (PBM E-score (-0.5 to 0.5)) [4]: 0.477

Sequence: TTTAAAAA (double strand) [8-mer TTTAAAAA]
- binding signal (PBM E-score (-0.5 to 0.5)) [9]: 0.48

Sequence: TTTTAAAA (double strand) [8-mer TTTTAAAA]
- binding signal (PBM E-score (-0.5 to 0.5)) [9]: 0.494
